This note sets out measurements from patent publication US20240368277A1 (ORIONIS BIOSCIENCES, published 2024).

Experiment [1] has as its target T1, full length human SIRPA expressed on transiently transfected Hek293T cells (pMET7 FLAG-hSIRPA) (human, UniProt P78324 31-504).
T1 construct: whole, on cells; also called human SIRP1α; human SIRPα
In words: FACS, serial dilution of purified VHH on hSIRPA- or empty vector (MOCK)-transfected Hek293T cells; FITC-coupled anti-HA antibody. The method, then: Expression-vectors (pMECS) encoding the 27 putative human SIRPA binding VHHs were transformed to WK6 cells. VHHs (with a C-terminal HA and His-tag) were expressed in periplasmic extracts upon IPTG overnight stimulation and purified from the periplasmic extracts using the HisPur Cobalt Spin Plates (ThermoFisher) according to the manufacturer's guidelines. Purified VHHs were applied in a FACS binding-assay at 1 μg/ml: Hek293T cells were transiently transfected with a full length human SIRPA plasmid (pMET7 FLAG-hSIRPA) or an empty vector (MOCK). Two days after transfection, cells were resuspended and incubated with purified VHH in FACS buffer (PBS+0.5 mM EDTA+3% FBS). VHH binding was detected using a FITC-coupled anti-HA Ab (Genscript). Samples were acquired with a MACSQuant X instrument (Miltenyi Biotec) and analyzed using the FlowLogic software (Miltenyi Biotec).
Based on this initial binding-experiment and on the comparison of the 27 sequences, 5 VHHs (4 members of sequence group 1 which encompasses 26 sequences and 2HSI22 which is a unique representative of sequence group 2) were studied in more detail for binding to human SIRPA. Binding in FACS was measured as described above. In brief, hSIRPA or empty vector (MOCK) transfected cells were incubated with a serial dilution of purified VHH and binding detected using a FITC-coupled anti-HA Ab (GenScript). Data are summarized in FIG. 7 and illustrate concentration dependent specific binding to hSIRPA for all 5 VHHs.

Experiment [2] addresses T2, His6-tagged recombinant extracellular domain of human signal regulatory protein alpha (hSIRP1α) (human, UniProt P78324 31-373).
T2 construct: extracellular domain; also called antigen; not shown: His6 tag
In words: ELISA, crude periplasmic extracts on coated His6-tagged hSIRP1α extracellular domain. As to the method:
The VHH library was panned on solid-phase coated antigen (200 μg/ml in 100 mM NaHCO₃, pH 9.3) for 3 rounds. The enrichment for antigen-specific phages was assessed after each round of panning by comparing the number of phagemid particles eluted from antigen-coated wells with the number of phagemid particles eluted from negative control (uncoated blocked) wells. […] There was no enrichment after the 1st panning round. In total, 190 colonies from panning round 2 were randomly selected and analyzed by ELISA for the presence of antigen-specific VHHs in their periplasmic extracts (ELISA using crude periplasmic extracts including soluble VHHs) (see FIG. 5). The antigens used for panning and ELISA screening were the same as the ones used for immunization, using uncoated blocked wells as negative control. […] Based on sequence data of the positive colonies, 27 different full length VHHs were distinguished (see FIGS. 4A, 4B, and 5 and SEQ ID Nos: 300-326).

T2 sequence (P78324 31-373): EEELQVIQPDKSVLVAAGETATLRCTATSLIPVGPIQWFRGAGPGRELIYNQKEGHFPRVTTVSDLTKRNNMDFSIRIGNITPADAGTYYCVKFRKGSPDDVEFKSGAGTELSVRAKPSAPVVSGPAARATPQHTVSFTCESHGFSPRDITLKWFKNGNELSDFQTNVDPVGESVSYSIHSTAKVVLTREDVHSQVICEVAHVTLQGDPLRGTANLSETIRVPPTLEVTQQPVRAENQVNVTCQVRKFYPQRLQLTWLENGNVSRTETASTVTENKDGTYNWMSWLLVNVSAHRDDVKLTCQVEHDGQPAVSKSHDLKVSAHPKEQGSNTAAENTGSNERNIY
T1 sequence (P78324 31-504): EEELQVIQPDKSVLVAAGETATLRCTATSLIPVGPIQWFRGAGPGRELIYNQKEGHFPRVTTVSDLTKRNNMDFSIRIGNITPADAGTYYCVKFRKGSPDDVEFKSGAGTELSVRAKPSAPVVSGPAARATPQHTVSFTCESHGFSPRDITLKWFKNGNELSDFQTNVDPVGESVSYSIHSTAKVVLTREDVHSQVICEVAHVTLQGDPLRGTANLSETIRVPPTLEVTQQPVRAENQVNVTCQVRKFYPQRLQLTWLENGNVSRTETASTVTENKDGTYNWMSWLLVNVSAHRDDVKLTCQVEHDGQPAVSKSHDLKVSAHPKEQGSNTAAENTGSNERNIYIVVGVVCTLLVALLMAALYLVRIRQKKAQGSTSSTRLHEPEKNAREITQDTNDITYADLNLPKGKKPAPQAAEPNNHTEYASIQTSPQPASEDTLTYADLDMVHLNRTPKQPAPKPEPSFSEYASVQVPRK

B1: 2HSI22 (VHH)
VHH: QVQLQESGGGLVQPGGSLRLSCAASGLNFRRYTMGWFRQAPGKEREFVGVINWSDDSIYYADSVKGRFAISRDNTKNTVYLQMASLKPEDTAVYYCAASPQWDTRVRQTMRGKYDYWGQGTQVTVSS
notes: The entry includes the C-terminal AAA linker, HA tag and His6 tag, as expressed from pMECS
For the molecule B1, the binding result in experiment [1] and in experiment [2] was “binds” throughout.
